Measurements published in the DeepSol protein solubility set.

experiment: soluble on expression in E. coli; label from the status in PepcDB or PDB records

Sequence | soluble on expression in E. coli
MVFLDPIHRIDVVTLSELSRLGFRRSGDFVYRPECHLCRQCLSCRVPVADFQMNSMQKKAWKRNQDLTMTVLPTRQASQIHYDLYERYINERHADGDMFPPSLDQFEKFLVHSCTDSFFLELWKDNRLISVSTCDLMDDGLSAVYTFFDPDEHRRSLGVYSILNQIEYVKTLGLEYVYLGYWVPHSAKMNYKSQYTPLELLLDGQWRRLNRSLSPEEINQLGNSLMTTLPSEWNNLIIKLEHHHHHH | not soluble
SDPAGASVASAIGGEGEKFAVGNIYSVKVITGDEFRGIVMAYDPIPNFVFFEEGTKPRPGHLKNTRMVNASFITGLSYLGKTEDPFDSDNFSVDLNGLRAKEALAIRQAEADAERMGVGVTAEAQSIFDALSKTLPVQWENSDILVMKEVRVRSPYLSDCVFGGTDAANNRVKKVLELERRRLQLFGT | soluble
MSEPSNLVSKFQKLRVEASKIQNEFKEKPSYTLFKETLDISEKLLEKQFEFNDEMKQIQQNVMSELKSVKKELKQATSIKDLLEILEIIQKIFKKQDEFQQVQENQNKSIENLNSELKTVKAELNETKKQQESQEKLIDNSDKNLKLILESILKFQKSQDQIMMKIMEGSAVQDVPLGTVELTKIDPFFEILVIWTESCGIFASENHWKLRVCGSDTIRHIKLRINSLAKVDISSFRMVLRGKLLEDHHSLAYYNIQEGALIWLYSHLKMSETSSLMSQFQKLRVETSKIYNEFTEMVKNETSDMKKQQETQILKEQDEFQDEIRQEFLKIQENENKLIEKLMSELKTLKTELNETKNQISDLHNATKQQESQAQSMNDLLTKNSNNNLKMMLKIQEGQDRIMMKIQEGAAVKDVPIESGELAKNDSMFKIFVSWSIPGGIFVSENRRKLPVYESNTIRQIKLRINSLKSQDQMKIQEGEFAKKIEESVAPVKTPLEAPIEDKKLDNKKPFFKITVHLHGGPNASVYGRKYNHLVFDAHTIRDLKVRIKALIMQSSPIKLRTELYRLFFVYTLLEDHQTIAYYKFKKAQHLT | soluble
MHDNTIKSISKDYFDYLQTESKFIPLENETIEFYSPIVDYFGDSISVNISFSGDRYKLTDHGETLWNMEQLGIDLTSNKKQKKYQLLNNIVQNYSLVIENKHINFYTNRINLSQAIHDYVLAISEISYLGILKKENIKSLFKDEVMQYFLSNRKIYPNIFPEFKVEGKSKLIHSFEAVFPGEATEYVKTIKRIDKNNAKNVLFDWNDVEIHRNKNFDSNARLNIITEQQDDISEAVSTMLSQYNVEVFSFENKKQLEEKFSNV | not soluble
MLLAFKAKIALAALAGFVTPLAVTPLVIDHGDAALDGQQAMVEIAPGAMDYRLPGEFTRDGRQIEAPRTKLQFDRPLSIMLHQVSAADYQRCVDDGACHPMPAATAVRADRPAVQVSWQDATTYADWLSRKTGAHYRLPTDAEWAFAAGSKFKDDGLALDSDDPSVRWIARYERESDRDNLSAALRSFGGFGANERGLLDLSGNVWEWTTTCFDRSAIDAAGRPQAQTANCGVRVAEGLHRAYVSDFIRDAKAGGCSAGLPPIHLGFRLVREPAAPLARLRGQLDRVVTAAGILEHHHHHH | not soluble
MQYCELDLSGQWLDTVYCEENFSDFVFIKFLNPSQFEEKIYCYTLHITKRTLENKRLLLYYEDEFKKHGHDINELVGDGIILRSCWNPRQ | soluble
MFEPGHLHLVSLPGLDQQDINIHIRYEVRQNAESGAYVHFDMDGEIDGKPFSDSFELPRDTAFNFASDATRVAQKHGLHPKFGAITRVHKEYDAMFEDIRAKLHAHPGEPVDLERIIRHE | not soluble
MNIYKLIGRNLEITDAIRDYVEKKLARLDRYQDGELMAKVVLSLAGSPHVEKKARAEIQVDLPGGLVRVEEEDADLYAAIDRAVDRLETQVKRFRERRYVGKRHSYQGPPPPEVRDLEALRKPEEEEGPRIVRVKRFEMKPMDPEEAAFQMEALGHSFFVFRNAKTDEINVIYRRKDGNYGLIEPA | soluble
MGSDKIHHHHHHMLKDLVREKLLTIMNTKAYTQFNPEQLLQLENEMKIYMKSGDSALTEGNYFFLMEMLFYVLVYRNQDVDAQVVYNTLRDRLGENSYKMVIMKATLLQINGNDKGAIEYLENLLNDDLEYETDFVTYVSIAKKLIAIKTTSKNLSQESVLKEVVALTDKFPLDAELWWYASEIYFEMGQFEKACYCLEQVLCITPFNYACFGRLSETLYYEALRSKKQTKTELLEKALKNALRSVELSELYLKGWALVNIISRELGRNKQNDLIKLSASKLKEISAKSNNKDKITAELILNKI | not soluble
LSKPKLAVVGARKCSETGKQSVRKIVHELGNAFTIVSGLARGIDTCAHMEALKNKGNTIAVIGTGLDVYYPKENKALQDYMAKNHLVLTEYGPGEQPLKYHYPERNRIISGLCQGVMVVEAKLRSGSLITCERAMEEGRDVFAIPGNILDGKSDGCHHLIQEGAKCITTGFDIISEFS | not soluble
SAAEEEDEVEWVVESIAGFLRGPDWSIPILDFVEQKCEVFDDEEESKLTYTEIHQEYKELVEKLLEGYLKEIGINEDQFQEACTSPLAKTHTSQAILQPVLAAEDFTIFKAMMVQKNIEMQLQAIRIIQERNGVLPDCLTDGSDVVSDLEHEEMKILREVLRKSKEEYDQEEERKRKKQLSEAKTEEPTVHSSEAAIMNNSQGDGEHFAHPPSEVKMHFANQSIEPLGRKVERSETSSLPQKGLKFPGLEHASIEGPIANLSVLGTEELRQREHYLKQKRDKLMSMRKDMRTKQIQNMEQKGKPTGEVEEMTEKPEMTAEEKQTLLKRRLLAEKLKEEVINK | soluble
HKQLNFVDLYYHPVLADMAALLSQKNVFKAIYTFVPRTDDMGDKPALFVIHSGNTGSDVYRPLFTGIKRPSFPIYVIEPHNLLNPEDQIYGIENLAKYYLQMINKFLPESSKREINLMGWSYGGVVASEMCYQLEHETSLLHVNQLTVLDSSFYLSSEDLQRVRKREANGFYAKYFTETHIFEGMDKKNVTTERLIANNHQVCEDLFNYHSKQVNVATTFVRSMVEENPLTDEQIKLLFKHVTIKNVYDGHDYLFVHESSRSLIQDVLGLAA | not soluble
MGSDKIHHHHHHMVSFVHSSDLHLGKSFGTFPEDVRVRLQQARLESLTTLADIARTNGARHVLLAGDTFDKMTPAPKVIRGALNAMREAADVTWWVLPGNHDHVNATELWRTFTSDAPANVHALLRPEPVMLTDGVALLPAPPTERHPGRDLTDWFDDAATGDALRIGLAHGSIRGFSAEDGGASVLSFNRARDAGLAYLGLGDWHGQLQVSENTWYSGAPEADSFKHAMDPSALLVEVDGARVTVTPHPTSRLIWRASEVDLIGDEADLPLPPQDRARTLLKLTLTGRARPAVRRDLEAAFDHAAPDFLWAEAEFDGLDLVHETSDLDQIDRQGALRAAAEALVREADDQALSPEARATADAALSLLFTYAAEA | not soluble
MRKIVLPGDLLSTNPRAAGYGTYVEGGKVYAKIIGLFDQTETHVRVIPLKGRYTPSVGDVVIGIIREVAANGWAVDIYSPYQAFLPVSENPEMKPNKKPNEVLDIGDAIIAKVLNIDPKMKVTLTMKDRICRPIRFGRIVAINPARVPRVIGKKGSMIKLLKSELDVQIVVGQNGLIWVNGDRRKVSIAEEAIYLIEQEAHTEGLTDRVAEFIKRRKADVGIQHHHHHH | soluble
ETAADNAAYWSIATTMRSDNSALSAVQDALGLGAAKVDTAYDALESTIEVVKQIKAKLVAAYGVGADRGKIQDEIKQLQEQLKSISESASFSGENWLQASISNSGTPPVAESITKKVVASFTRTGSGNVGVTTVDYTLDSSTVLFDLSGGKLGILDKNAVFVSKTETEVMQTSTTAGKTSQAGYVVEKLSDAQIGALNATTTDTNTDPNLYSNGTDNYLRLAENVWVKATATNPSSGGTTVSPAYRDTGSTDWFYDVSAGTASANRSLGFSVSTLDLGNLDVVAAAMGGFAGGGTTYTGADAIDMMMSFVDKQLEAMTSTASSLGSLQSRISMQENFVSSLMDVIDKGVGRLV | not soluble
MGSDKIHHHHHHMAHQPVGTGSSIEVSVNPGHSRTSGVISHMSDTLRVAIVGDSDLQGAHVAISKSEFSPAADATDYLVLKDKPATISISRPSSQRVVGITTGSTTLIDFPEGTGSPFGINDMVTLRVIDQPYFEAAIGFGTVTKVWNAANIGGHYSTRITVNADTSGIKTDYVSTNWAELRSSFKVSSLGIGVGGKTGALYFQQVQITGE | not soluble
MGIIERIKEIEAEMARTQKNKATEYHLGQLKAKIAKLRTQLLEPPKGASGGGEGFEVTKYGHGRVALIGFPSVGKSTLLTMLTGTHSEAASYEFTTLTCIPGVIHYNDTKIQLLDLPGIIEGASEGKGRGRQVIAVAKSSDLVLMVLDASKSEGHRQILTKELEAVGLRLNKTPPQIYFKKKKTGGISFNTTAPLTHIDEKLCYQILHEYKIHNAEVLFRENATVDDFIDVIEGNRKYIKCVYVYNKIDVVGIDDVDRLSRQPNSIVISCNLKLNLDRLLARMWDEMGLVRVYSKPQGQQPDFDEPFVLSSDRGGCTVEDFCNHVHRTLVKDMKYALVWGTSTRHNPQNCGLSQHLEDEDVVQIVKKKERDEGGRGRFKSHSNAPARIADREKKAPLKQ | soluble
MTNHEQVLTDYLAAFIEELVQAGVKEAIISPGSRSTPLALMMAEHPTLKIYVDVDERSAGFFALGLAKASKRPVVLLCTSGTAAANYFPAVVEANLSQIPLIVLTADRPHELRNVGAPQAMDQLHLYGSHVKDFTDMALPENSDEMLRYAKWHSSRAVDIAMKTPRGPVHLNFPLREPLVPILEPSPFTATGKKHHHVH | not soluble
MLCLGIEGTAEKTGVGIVDEAGNVLSLRGKPLIPEKGGIHPREAAEHHAKWIPRLIAEACRDAGVELGEIGLISFSRGPGLGPALRTVATAARTLALSLDVPIVGVNHCIGHIEIGRLTTGASDPVSLYVSGGNTQVIAFNEGRYRVFGETLDIAVGNMLDQFARESGLGHPGGPVIEQLALKASEYIELPYSVKGMDISFSGLLTAALRKMEAGASLEDLAYSIQETAFSMLVEVTERALAYTEKNQVLLCGGVAVNRRLRDMLREMCQEHHVEFHMPPPEYCGDNGAMIAWLGQLVYKYRGPDALEDTTVVQRYRTDEVDVPWMRESEAGIELPPDILAKGAEANIYRGQWIGRPCIIKERISKGYRIPEIDQKLRSSRTRREARLINQAKGAGVHTPVLFDVDPDGGVMVMEEVRGTPFRDAVEDTELCSRIGEAIGRLHHAGIIHGDLTGSNIIIRGGDVVFIDFGLGRFSDEIEDMGVDLLVLKKSLESTHYALAGECFSRVLEGYGKIIDADIQSKIREIESRGRYTD | soluble
MGIFRIQAYFFALIIALFFVACDSGENFKALNSDKTYNFAYNGFEKSLKLNDKAQNFALVFFTKDCGVCKEQIPILQNLAKNYDFNIFVVLGDANDANDAKAWADEKGLSNLAMFYEKRAAKYLSSAIGEIYGVPVLSFFKEGKMDEKFIGLTPYSILEKEIKKVKS | not soluble
MSATGPGIVVIDKPAGMTSHDVVGRCRRIFATRRVGHAGTLDPMATGVLVIGIERATKILGLLTAAPKSYAATIRLGQTTSTEDAEGQVLQSVPAKHLTIEAIDAAMERLRGEIRQVPSSVSAIKVGGRRAYRLARQGRSVQLEARPIRIDRFELLAARRRDQLIDIDVEIDCSSGTYIRALARDLGDALGVGGHVTALRRTRVGRFELDQARSLDDLAERPALSLSLDEACLLMFARRDLTAAEASAAANGRSLPAVGIDGVYAACDADGRVIALLRDEGSRTRSVAVLRPATMHPGGVPRGKLAAALEHHHHHH | soluble
